Earlier results in patent publication US20070166367A1, “Adept or gdept producing acetaldehyde” (priority 2004, published 2007).
Where two headings read alike, the source gives them in different places. Each block holds one molecule with its values, some of them ahead of it.

B1: Human class IV: human class IV alcohol dehydrogenase (protein, UniProt P40394 1-386, looked up)
All-trans-retinol …: MFAEIQIQDKDRMGTAGKVIKCKAAVLWEQKQPFSIEEIEVAPPKTKEVRIKILATGICRTDDHVIKGTMVSKFPVIVGHEATGIVESIGEGVTTVKPGDKVIPLFLPQCRECNACRNPDGNLCIRSDITGRGVLADGTTRFTCKGKPVHHFMNTSTFTEYTVVDESSVAKIDDAAPPEKVCLIGCGFSTGYGAAVKTGKVKPGSTCVVFGLGGVGLSVIMGCKSAGASRIIGIDLNKDKFEKAMAVGATECISPKDSTKPISEVLSEMTGNNVGYTFEVIGHLETMIDALASCHMNYGTSVVVGVPPSAKMLTYDPMLLFTGRTWKGCVFGGLKSRDDVPKLVTEFLAKKFDLDQLITHVLPFKKISEGFELLNSGQSIRTVLTF
Km (for ethanol): 37000 µM

enzymatic rate relative to the usual human ADH enzymes ('physiological' ethanol concentrations): at least 16 fold
B2: Human B2: human alcohol dehydrogenase β2, atypical liver class I enzyme, B2B2 homodimer (protein, UniProt P00325 2-375, looked up)
All-trans-retinol …: STAGKVIKCKAAVLWEVKKPFSIEDVEVAPPKAYEVRIKMVAVGICHTDDHVVSGNLVTPLPVILGHEAAGIVESVGEGVTTVKPGDKVIPLFTPQCGKCRVCKNPESNYCLKNDLGNPRGTLQDGTRRFTCRGKPIHHFLGTSTFSQYTVVDENAVAKIDAASPLEKVCLIGCGFSTGYGSAVNVAKVTPGSTCAVFGLGGVGLSAVMGCKAAGAARIIAVDINKDKFAKAKELGATECINPQDYKKPIQEVLKEMTDGGVDFSFEVIGRLDTMMASLLCCHEACGTSVIVGVPPASQNLSINPMLLLTGRTWKGAVYGGFKSKEGIPKLVADFMAKKFSLDALITHVLPFEKINEGFDLLHSGKSIRTVLTF
modifications: beta2 allele homodimer
Km (for ethanol): 940 µM
Vmax relative to the usual human alpha, beta and gamma variants (pH 7.5): (Note at pH 7.5 the Vmax of beta 2 is 5-40 times higher that the usual human alpha, beta and gamma variants)

B3: Human B1: usual human alcohol dehydrogenase B1 isoenzyme (protein, UniProt P00325 2-375, looked up)
All-trans-retinol …: B2 All-trans-retinol …
Km: 49 µM
